The values that follow are results of earlier work, collected in article PMC9254164.

For the data set, the target named is phospho-ubiquitin (Homo sapiens) (UniProt P0CG47).

Parkin, sequence (O60260 whole entry): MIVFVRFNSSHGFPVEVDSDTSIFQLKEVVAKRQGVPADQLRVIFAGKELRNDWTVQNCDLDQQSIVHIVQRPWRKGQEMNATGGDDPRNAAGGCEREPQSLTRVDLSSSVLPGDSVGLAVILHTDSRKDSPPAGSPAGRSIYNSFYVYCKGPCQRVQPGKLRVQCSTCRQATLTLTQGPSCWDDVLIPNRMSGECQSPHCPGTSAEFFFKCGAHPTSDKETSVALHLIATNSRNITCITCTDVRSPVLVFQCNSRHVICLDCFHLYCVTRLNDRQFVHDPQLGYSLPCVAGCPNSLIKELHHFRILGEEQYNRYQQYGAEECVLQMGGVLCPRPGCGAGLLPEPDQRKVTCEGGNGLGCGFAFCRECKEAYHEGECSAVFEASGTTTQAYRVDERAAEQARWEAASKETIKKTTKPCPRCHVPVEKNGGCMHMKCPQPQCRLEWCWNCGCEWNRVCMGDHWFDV

The Kd is the equilibrium constant for the complex coming apart. Regarding Parkin (from UniProt O60260), the Kd is 20 nM.
